Source: patent US20210380703A1
Positions count from the first letter of the chain named.

B1: 367_B04 (antibody, V domains shown)
VH: EVQLLESGGGLVQPGGSLRLSCAASGFTFDSYSMNWVRQAPGKGLEWVSGINYNSGYKSYADSVKGRFTISRDNSKNTLYLQMNSLRAEDTAVYYCARGANWHDTHLDYWGQGTLVTVSS
VL: DIQMTQSPSSLSASVGDRVTITCRASQSILSYLNWYQQKPGKAPKLLIYAATSRASGVPSRFSGSGSGTDFTLTISSLQPEDFATYYCQQSYELPLTFGGGTKVEIK
B2: 367_B12 (antibody, V domains shown)
VH: B1 VH with D30S, S33G, N35H, S49A, G50S, S55G
VL: B1 VL with L33V, L47V, R54L, E93D, L94T
B3: 367_C07 (antibody, V domains shown)
VH: B1 VH with D30S, G50S, K58T, S59G
VL: B1 VL with S31T, L33V, E93N
B4: 367_C10 (antibody, V domains shown)
VH: B1 VH with S55G, K58T, H106A
VL: B1 VL with L30V, L33V, A51V, L94T
B5: 366_F10 (antibody, V domains shown)
VH: B1 VH with S49A, S55G, K58T, S59G, G99A
VL: B1 VL with L30V, L47V, E93D, L94T
B6: 367_D03 (antibody, V domains shown)
VH: B1 VH with G50S, S55G, K58T, S59G
VL: B1 VL with L30I, S31T, E93D, L94T
B7: 367_D06 (antibody, V domains shown)
VH: B1 VH with S49A, S55G, K58T
VL: B1 VL with L30S, S31T, L47V, R54L, E93N, L94S
B8: 367_D08 (antibody, V domains shown)
VH: B1 VH with D30S, S31D, S49A, S55G, K58T
VL: B1 VL with L47V, A55H, Y92D, E93D
B9: 367_D12 (antibody, V domains shown)
VH: B1 VH with D30S, G50S, S55G, K58T, S59G
VL: B1 VL with L30V, L33V, L47V, L94S
B10: 367_E05 (antibody, V domains shown)
VH: B1 VH with D30S, S33G, S49A, S55G, K58T
VL: B1 VL with A55H, E93D, L94S
B11: 367_G01 (antibody, V domains shown)
VH: B1 VH with S33G, S49A, G50S, K58T, S59G
VL: B1 VL with L30S, L47V, E93D
B12: 367_G04 (antibody, V domains shown)
VH: B1 VH with D30S, S49A, K58T
VL: B1 VL with L47V, E93D, L94S
B13: 367_H03 (antibody, V domains shown)
VH: B1 VH with D30S, S33G, S49A, K58T
VL: B1 VL with L30I, S31T, L33V, R54L, E93D
B14: 366_G06 (antibody, V domains shown)
VH: B1 VH with D30S, S33G, N35H, S49A, G50S, S55G, K58T, S59G, G99A
VL: B1 VL with L30V, L33V, L47V, E93D, L94N
B15: 368_A03 (antibody, V domains shown)
VH: B1 VH with D30S, S55G, K58T, S59G
VL: B1 VL with L30I, A51V, L94N
B16: 368_A04 (antibody, V domains shown)
VH: B1 VH with S31D, S49A, S55G
VL: B1 VL with S31T, L47V, A51V
B17: 368_B09 (antibody, V domains shown)
VH: B1 VH with S33G, G50N, S55G, S59G
VL: B1 VL with A55H, E93D, L94T
B18: 368_E12 (antibody, V domains shown)
VH: B1 VH with D30S, S31D, S33G, S49A, S55G, K58T
VL: B1 VL with L30V, L33V, L47V, A51V, E93D, L94S
B19: 368_F09 (antibody, V domains shown)
VH: B1 VH with D30S, S33G, K58T
VL: B1 VL with S31T, T52S, R54L, A55Q, L94T
B20: 368_H02 (antibody, V domains shown)
VH: B1 VH with D30S, S33G, S49A, K58T, H106A
VL: B1 VL with L30V, S31T, L47V, L94S
B21: 368_H05 (antibody, V domains shown)
VH: B1 VH with D30S, S49A, G50N, S55G
VL: B1 VL with L30V, L33V, L47V, A51T, L94S
B22: 369_A07 (antibody, V domains shown)
VH: B1 VH with D30S, S49A, S55G, S59G, H106A
VL: B1 VL with L47V, L94S
B23: 367_B09 (antibody, V domains shown)
VH: B1 VH with S33G, N35H, S49A, G50S, S55G, K58T, G99A, H106A
VL: B1 VL with L33V, L47V, L94N
B24: 369_B05 (antibody, V domains shown)
VH: B1 VH with S55G
VL: B1 VL with L30I, R54L, E93D, L94T
B25: 369_C05 (antibody, V domains shown)
VH: B1 VH with S49A, S55G, K58T, H106A
VL: B1 VL with L30S, L33V, L47V, A51T, A55H, E93N, L94S
B26: 369_D03 (antibody, V domains shown)
VH: B1 VH with D30S, S55G, K58T
VL: B1 VL with S31T, L47V, L94N
B27: 369_D07 (antibody, V domains shown)
VH: B1 VH with D30S, S33G, S55G
VL: B1 VL with L30V, L47V, E93D
B28: 369_D09 (antibody, V domains shown)
VH: B1 VH with D30S, S31D, S33G, G50N, S55G, K58T, H106A
VL: B1 VL with S31T, E93D, L94S
B29: 369_E06 (antibody, V domains shown)
VH: B1 VH with D30S, S33G, S55G, K58T, H106A
VL: B1 VL with L30I, L47V, A55H, E93D, L94S
B30: 370_A02 (antibody, V domains shown)
VH: B1 VH with S33G, S49A, S55G, K58T, S59G, H106A
VL: B1 VL with L30V, S31T, L47V, E93D, L94S
B31: 370_B03 (antibody, V domains shown)
VH: B1 VH with D30S, S49A, G50N, S55G, K58T, S59G, H106A
VL: B1 VL with L47V, E93N, L94N
B32: 370_B11 (antibody, V domains shown)
VH: B1 VH with K58T
VL: B1 VL with L47V, A55H, S91G, E93D
B33: 370_B12 (antibody, V domains shown)
VH: B1 VH with D30S, S31D, S55G, S59G, H106A
VL: B1 VL with L33V, L47V, A51T, L94T
B34: 370_D05 (antibody, V domains shown)
VH: B1 VH with S31D, G50N, S55G, S59G, H106A
VL: B1 VL with L30I, S31T, L47V, A55H, E93D, L94T

Molecular target: human Fc (human)
Assay: ELISA, negative control

Binder	optical density [OD]
B1	0.265
B2	0.414
B3	0.387
B4	0.233
B5	0.28
B6	0.29
B7	0.283
B8	0.237
B9	0.309
B10	0.333
B11	0.356
B12	0.287
B13	0.377
B14	0.341
B15	0.348
B16	0.283
B17	0.258

Binder	optical density [OD]
B18	0.347
B19	0.242
B20	0.348
B21	0.277
B22	0.288
B23	0.476
B24	0.314
B25	0.32
B26	0.391
B27	0.363
B28	0.287
B29	0.306
B30	0.425
B31	0.3
B32	0.326
B33	0.478
B34	0.333
